Results on 5 molecules are retold here after US20230242624A1 (NEURIMMUNE, published 2023).

The labels stand for the following.
T1: MERS-CoV Spike protein fragment (RBD, aa 367-606, His tag) (MERS-CoV, UniProt K9N5Q8 367-606)
T1 sequence: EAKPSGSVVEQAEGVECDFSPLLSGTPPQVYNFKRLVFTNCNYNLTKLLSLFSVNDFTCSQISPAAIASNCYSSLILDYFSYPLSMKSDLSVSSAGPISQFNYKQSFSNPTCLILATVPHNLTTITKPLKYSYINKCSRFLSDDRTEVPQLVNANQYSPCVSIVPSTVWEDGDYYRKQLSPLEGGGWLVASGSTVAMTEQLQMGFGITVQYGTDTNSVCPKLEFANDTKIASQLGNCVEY

B1: NI-607.532_B6 (antibody, V domains shown)
VH: QVQLVQSGAEVKKPGASVKVSCKASGYTFTSYDINWVRQATGQGLEWMGWMNPNSGNTGYAQKFQGRVTMTRNTSISTAYMELSSLRSEDTAVYYCARVVSLTGFFDYWGQGTLVTVSS
VL: SYELTQPPSVSVAPGKTARITCGGNNIGSKNVHWYQQKPGQAPVLVVYDDSDRPSGIPERFSGSNSGNTATLTISRVEAGDEADYYCQVWDSSSDPWVFGGGTKLTVL
B2: NI-607.429_B9 (antibody, V domains shown)
VH: EVQLVESGGGLVQPGGSLRLSCAASGFTFSSYWMSWVRQAPGKGLEWVANIKQDGSEKYYVDSVKGRFTISRDNAKNSLYLQMNSLRAEDTAVYYCASLFWRRGSFDPWGQGTLVTVSS
VL: QSVLTQPHSVSESPGKTVTISCTRSTGSIASNYVQWYQQRPGSAPTTVIYEDNQRPSGVPDRFSGSIDSSSNSASLTISGLKTEDEADYYCQSYDTSSYWVFGGGTKLTVL
B3: NI-607.426_F11 (antibody, V domains shown)
VH: QVQLVESGGGLVQPGGSLRLSCAASGFTFSSYWMSWVRQAPGKGLEWVANIKQDGSEKYYVDSVKGRFTISRDNAKNSLYLQMNSLRAEDTAVYYCARGLVGQWLGVDYWGQGTLVTVSS
VL: QSVLTQPHSVSESPGKTVTISCTGSSGSIASNYVQWYQQRPGSAPTTVIYEDNQRPSGVPDRFSGSIDSSSNSASLTISGLKTEDEADYYCQSYDSSNWVFGGGTKLTVL
B4: NI-607.531_E7 (antibody, V domains shown)
VH: EVQLVESGGGVVQPGRSLRLSCAASGFTFNFYSMHWVRQVPGKGLEWVAVISFDGSTKHYAESLRGRFAVSRDNSKSTLYLQMNSLRPEDTAVYYCASPPLSPIPAAGTPLDYWGQGTLVTVSS
VL: EIVMTQSPDSLAVSLGERATINCKSSQSIFYRSDDKDFLAWYQQKPGQPPKLLISWASTRESGVPDRFSGSGSGTDFTLTISSLQAEDVAVYYCQQFYYTPFTFGPGTKLEIK
notes: also called F31 E7
B5: NI-607.532_F3 (antibody, V domains shown)
VH: EVQLVQSGAEVKKPGESLKISCKGFGYIFSNDWIGWVRQKPGKGLEWMGIIYPGDSDTRYSPSFRGQVTISADKSVSTAYLQWDSLKASDTAVYYCTRPRYTTMIVGSNPFDVWGQGTTVTVSS
VL: QSVLTQPPSVSGAPGQRVTISCTGSSSNIGGGYDVHWYQKLPGTAPKLLIFDNDNRPSGVPDRFSGSKSDTSASLTITGLQAEDEADYFCQSYDSSLSGSGVVFGGGTKLTVL

T2 sequence (P02769 25-607 limits assumed): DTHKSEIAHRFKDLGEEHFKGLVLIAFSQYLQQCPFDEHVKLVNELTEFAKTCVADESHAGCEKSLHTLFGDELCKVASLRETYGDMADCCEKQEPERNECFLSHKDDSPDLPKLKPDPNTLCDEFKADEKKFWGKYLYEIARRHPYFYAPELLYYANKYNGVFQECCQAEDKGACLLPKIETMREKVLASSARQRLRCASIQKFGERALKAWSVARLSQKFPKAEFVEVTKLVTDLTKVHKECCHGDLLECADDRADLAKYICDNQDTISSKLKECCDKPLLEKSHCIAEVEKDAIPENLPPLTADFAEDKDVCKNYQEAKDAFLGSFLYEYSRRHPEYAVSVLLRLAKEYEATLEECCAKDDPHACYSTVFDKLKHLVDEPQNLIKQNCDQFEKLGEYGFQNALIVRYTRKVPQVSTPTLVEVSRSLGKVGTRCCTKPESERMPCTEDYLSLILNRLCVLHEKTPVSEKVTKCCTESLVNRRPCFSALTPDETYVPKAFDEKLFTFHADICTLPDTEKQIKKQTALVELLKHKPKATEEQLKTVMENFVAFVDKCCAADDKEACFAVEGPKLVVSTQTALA

One assay concerns the target T2, BSA (Sigma-Aldrich) (bovine, UniProt P02769 25-607).
T2 construct: also called bovine serum albumin; BSA control
Kind of assay: direct ELISA on coated BSA. In general terms: In an ELISA, binding on a coated surface is turned into a signal by an enzyme label.
As to B1, the binding result is reported as “no binding (tested: 400 nM)”.

Take B2: the binding result is reported as “no binding (tested: 400 nM)”.

As for B3, the binding result was “no binding (tested: 400 nM)”.

The target of another assay is T3, SARS-CoV-2-S1 (RBD)-His protein (Trenzyme) (SARS-CoV-2, UniProt P0DTC2 319-541). Kind of assay: competition ELISA, RBD binding to coated ACE2.
For orientation: IC50 means the midpoint of a concentration-inhibition curve. Low readings indicate inhibition by little substance, high ones a need for much substance. Molecule B4 came in with an IC50 of 3.67 nM. That is a single-digit nanomolar value.

With B5, the IC50 amounted to 0.353 nM.

B2 yielded a half-inhibitory concentration (IC50) of 0.074 nM.

B3: the IC50 came out at 1.14 nM.

In the next assay the target is T1, MERS-CoV Spike protein fragment (RBD, …). The assay is described as follows: iQue flow cytometry, antigen-coated beads. A general note: A flow cytometer gives signals particle by particle.
A word on the EC50: it is the concentration needed to bring the measured effect to its halfway point. In turn, B4 registered a 50% effective concentration (EC50) of 800 nM.

B5: the EC50 came to 1000 nM.

In the case of B1, the concentration giving a half-maximal response (EC50) came out at 1000 nM.

As for B2, it took 600 nM to reach a half-maximal effect (EC50).

As for B3, the midpoint of the response, the EC50, lay at 1000 nM.

Another assay addresses recombinant SARS-CoV Spike protein (RBD, His tag) (SARS-CoV, UniProt P59594 306-527). The assay is described as follows: iQue flow cytometry, antigen-coated beads.
Turning to B4, the half-maximal effective concentration (EC50) was determined as 600 nM.

In the case of B5, the EC50 is 1.3 nM.

Consider B1, for which the EC50 was determined as 4.2 nM.

The next assay addresses T3, SARS-CoV-2-S1 (RBD)-His protein …. The assay is described as follows: iQue flow cytometry, antigen-coated beads.
With B4, the concentration giving a half-maximal response (EC50) worked out at 1.3 nM.

Turning to B5, the half-maximal effective concentration (EC50) was 1.2 nM.

B1 displayed a concentration for a half-maximal effect (EC50) of 1.1 nM.

In turn, B2 came in with an EC50 of 1.87 nM.

In the case of B3, the 50% effective concentration (EC50) was 0.89 nM.

The target of another assay is SARS-CoV-2 Spike (S) protein on vesicular stomatitis virus (VSV) pseudoviruses (SARS-CoV-2, UniProt P0DTC2 14-1273). The assay is described as follows: cell-based or functional assay.
Turning to B4, the “IC50, pseudovirus entry assay (luciferase, HEK 293T-ACE2 cells)” value (“IC50, pseudovirus entry assay” below) came to 3.9 µg/mL.

Take B5: the “IC50, pseudovirus entry assay” value came to 11.7 µg/mL.

In the case of B1, the “IC50, pseudovirus entry assay” value was found to be 100 µg/mL.

B2: the “IC50, pseudovirus entry assay” value is 7.1 µg/mL.

In the case of B3, the “IC50, pseudovirus entry assay” value was above 100 µg/mL.

Another assay addresses T3, SARS-CoV-2-S1 (RBD)-His protein …. The assay is described as follows: direct ELISA on coated RBD-His.
B4: the half-maximal effective concentration (EC50) came to 0.027 nM.

With B5, the concentration giving a half-maximal response (EC50) was found to be 0.019 nM.

In the case of B1, a half-maximal effect (EC50) was put at 0.0045 nM.

On to B2, for which the 50% effective concentration (EC50) worked out at 0.014 nM.

B3 gave an EC50 of 0.017 nM.
